# Results taken from patent publication US20230112794A1 (NATIONAL TAIWAN UNIVERSITY, published 2023).
# B1: C14 monoclonal antibody (C14mab) (antibody, IgG1, V domains shown)
# VH: EVNLEESGGGLVQPGGSMQLSCAASGFTFSDAWMDWVRQSPEKGLEWVAEVRTKGYYPVTFYAESVKGRFTISRDDSKSSVYLQMNSLRAEDTGIYYCTRPHYGYGYFDVWGAGTTVTVSS
# VL: not shown
# notes: Early experiments used the C14 hybridoma culture supernatant; also called C14 clone
# What was measured:
# [1] = target: T1, mouse HyIL-6 (mouse IL-6/IL-6Rα complex, R&D systems) (mouse, UniProt P22272 20-357; P08505 25-211, limits assumed); assay: ELISA, coated mouse HyIL-6 (60 ng/well), serial dilution of purified C14mab [c]
# T1 construct: not shown: linker, if any, is not described for the bought mouse protein
# T1 sequence (chain (part 1 of 2), looked up): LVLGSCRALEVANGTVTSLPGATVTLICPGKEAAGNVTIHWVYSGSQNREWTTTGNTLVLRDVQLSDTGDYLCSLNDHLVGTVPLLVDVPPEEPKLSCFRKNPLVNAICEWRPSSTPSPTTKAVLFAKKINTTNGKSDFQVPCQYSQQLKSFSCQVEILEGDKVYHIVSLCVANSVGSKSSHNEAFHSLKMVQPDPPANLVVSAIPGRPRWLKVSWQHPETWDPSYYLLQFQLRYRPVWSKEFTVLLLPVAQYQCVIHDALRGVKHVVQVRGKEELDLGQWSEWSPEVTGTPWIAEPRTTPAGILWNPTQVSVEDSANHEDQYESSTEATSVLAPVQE
# T1 sequence (chain (part 2 of 2), looked up): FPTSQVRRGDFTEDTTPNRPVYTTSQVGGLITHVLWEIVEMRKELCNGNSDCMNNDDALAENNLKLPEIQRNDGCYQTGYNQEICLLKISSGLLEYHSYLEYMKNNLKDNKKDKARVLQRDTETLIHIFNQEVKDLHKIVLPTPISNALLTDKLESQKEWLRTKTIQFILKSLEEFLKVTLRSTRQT
# Description: (§1) FIG. 4 illustrates the binding characteristics of purified C14mab. (a) The microplates were coated with human IL-6 (20 ng/well), HyIL-6 (60 ng/well), and IL-6 Ra (40 ng/well). Serial dilutions of C14mab were added for 1 hr at room temperature. The binding ELISA data is graphed with OD₄₅₀ readings and their associated binding percentages vs. log antibody concentration. Data are compiled from three independent experiments. Values represent the mean±SEM. (b) Data were normalized to maximum signal for IL-6 and HyIL-6 individually. EC₅₀ values were obtained by nonlinear regression fitting to a variable slope, four-parameter dose-response model using the GraphPad Prism software (San Diego, Calif., USA). (c) The binding of mouse HyIL-6 (60 ng/well) with C14mab was measured by ELISA as described in (a). Values represent the mean±SEM from three independent experiments.
# [2] = target: T2, IL-6/IL-6Rα complex (IL-6 bound to sIL-6Rα, not fused) (human, UniProt P08887 20-358; P05231 30-212); assay: ELISA, coated sIL-6Rα (50 ng/well), IL-6 (10 ng/well) added, C14mab added without washing off unbound IL-6 [b]
# T2 construct: Non-covalent complex; also called IL-6/sIL-6Rα combination; IL-6/sIL-6R combination
# Description: FIG. 8 illustrates the epitope of HyIL-6/C14mab interaction. (a) Differential HDX of HyIL-6 upon C14mab binding. […] (b) A scheme depicts the assay procedure (left panel). The microplates were coated with sIL-6 Rα (50 ng/well) in PBS buffer at 4° C. overnight and blocked with 1% BSA in PBS for 1 hr. Then plates were washed with PBS containing 0.05% Tween-20. Upper; without washing group, IL-6 (10 ng/well) was added for 1 hr at room temperature. Then serial dilution concentrations of C14mab were added directly for another 2 hrs. Lower; washing group, IL-6 (10 ng/well) was added for 1 hr at room temperature. After plates were washed with PBS containing 0.05% Tween-20, serial dilution concentrations of C14mab were added directly for another 1 hr. The bound C14mab was determined by ELISA. The binding results with or without washing before C14mab incubation are shown in blue and red, respectively (right panel). One representative assay of 3 is shown.
# To further understand the C14mab binding mechanism in HyIL-6, we performed an indirect ELISA assay using C14mab as a detection antibody. Briefly, IL-6Rα was immobilized directly on the plate and then IL-6 was added to the IL-6Rα and allowed to bind. The unbound IL-6 was washed away and the IL-6/IL-6Rα complex was detected by C14mab (FIG. 8(b)).
# [3] = target: T3, recombinant human IL-6 (human, UniProt P05231 30-212); assay: indirect ELISA, IL-6 coated at 20 ng/well, four-parameter fit; coated IL-6
# T3 construct: Bought protein (R&D systems); also called Interleukin-6
# Description: as §1
# [4] = target: T4, recombinant human Hyper-IL-6 (HyIL-6), fusion of human sIL-6Rα and human IL-6 (human); assay: BLI (Octet), C14mab on anti-mouse Fc capture sensor, HyIL-6 1.56-25 nM, 1:1 global fit
# T4 construct: also called human IL-6Rα/IL-6 chimera; fusion protein of sIL-6Rα/IL-6
# Description: (§2) FIG. 5 illustrates the binding kinetics of C14mab. Biolayer interferometry analysis of the binding of C14mab to IL-6 (a) and HyIL-6 (b) was carried out. […] Kinetic parameters were evaluated by using a 1:1 binding model with global fitting. The experimental curves of each concentration (solid line) are shown alongside the fitted curves (dashedline). One representative set of curves is shown from three independent experiments.
# (§3) Octet is based on Bio-Layer Interferometry (BLI) for measuring protein-protein interactions. BLI analyzes the interference pattern of white light reflected from two surfaces: a layer of immobilized protein on the biosensor tip and an internal reference layer. The binding between C14mab immobilized on the biosensor tip surface using Biosensor AMC tips (ForteBio, Pall Corporation) and IL-6 (R&D systems) and HyIL-6 (R&D systems) in complex was measured. Interference patterns for the binding to or dissociating from the biosensor were measured in real time to generate a response profile on the Octet® System Octet 96 Red (ForteBio, Pall Corporation). Kinetic parameters were evaluated by using a 1:1 binding model with global fitting of three independent experiments with the Octet Red analysis software.
# [5] = target: T4, recombinant human Hyper-IL-6 (HyIL-6), …; assay: BLI (Octet), KD on HyIL-6 against KD on IL-6
# Description: as §2, §3
# [6] = target: T3, recombinant human IL-6; assay: BLI (Octet), C14mab on anti-mouse Fc capture sensor, IL-6 1.56-25 nM, 1:1 global fit
# Description: as §2, §3
# [7] = target: T5, IL-6Rα (soluble IL-6 receptor alpha, R&D systems) (human, UniProt P08887 20-358); assay: ELISA, coated IL-6Rα (40 ng/well), serial dilution of purified C14mab [a]
# T5 construct: also called IL-6 Ra; sIL-6Rα
# T5 sequence (looked up): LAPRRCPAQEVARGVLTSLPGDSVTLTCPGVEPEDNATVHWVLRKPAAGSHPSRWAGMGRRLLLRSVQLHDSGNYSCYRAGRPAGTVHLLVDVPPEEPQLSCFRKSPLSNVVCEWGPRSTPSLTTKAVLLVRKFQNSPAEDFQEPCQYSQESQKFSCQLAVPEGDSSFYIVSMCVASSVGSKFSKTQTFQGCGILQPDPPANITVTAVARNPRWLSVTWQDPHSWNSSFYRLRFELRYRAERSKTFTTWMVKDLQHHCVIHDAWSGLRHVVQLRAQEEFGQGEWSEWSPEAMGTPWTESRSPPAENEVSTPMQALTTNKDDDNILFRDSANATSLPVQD
# Description: as §1
# [8] = target: T4, recombinant human Hyper-IL-6 (HyIL-6), …; assay: indirect ELISA, HyIL-6 coated at 60 ng/well, four-parameter fit; coated human HyIL-6
# Description: as §1
# [9] = target: T4, recombinant human Hyper-IL-6 (HyIL-6), …; assay: indirect ELISA, EC50 on HyIL-6 against EC50 on IL-6
# Description: as §1
binder,measurement,setting,value
B1,binding result,[1],no binding (tested: 10 µg/ml)
same,EC50 (read off the curve),[2],~0.6 µg/mL
same,EC50,[3],0.0153 µg/mL
same,Kd,[4],286 pM
same,koff,[4],0.000144 s⁻¹
same,kon,[4],498000 M⁻¹ s⁻¹
same,fold binding strength against IL-6,[5],~4 times
same,Kd,[6],1130 pM
same,koff,[6],0.000665 s⁻¹
same,kon,[6],605000 M⁻¹ s⁻¹
same,binding result,[7],no binding (tested: 10 µg/ml)
same,EC50,[8],0.0043 µg/mL
same,fold stronger EC50 than for IL-6,[9],~3.5 times
